# Laboratory results published in patent US20240247043A1 (WUHAN YZY BIOPHARMA, published 2024).
# B1: LAG-3 D1-D2-LZ wild type W1161-LZ (other)
# chain 1: LQPGAEVPVVWAQEGAPAQLPCSPTIPLQDLSLLRRAGVTWQHQPDSGPPAAAPGHPLAPGPHPAAPSSWGPRPRRYTVLSVGPGGLRSGRLPLQPRVQLDERGRQRGDFSLWLRPARRADAGEYRAAVHLRDRALSCRLRLRLGQASMTASPPGSLRASDWVILNCSFSRPDRPASVHWFRNRGQGRVPVRESPHHHLAESFLFLPQVSPMDSGPWGCILTYRDGFNVSIMYNLTVLGGGGGSGGGGSEPKSSDKTHTCPPCPRIARLEEKVKTLKAQNSELASTANMLREQVAQLKQKVMNHHHHHH
# chain 2: LQPGAEVPVVWAQEGAPAQLPCSPTIPLQDLSLLRRAGVTWQHQPDSGPPAAAPGHPLAPGPHPAAPSSWGPRPRRYTVLSVGPGGLRSGRLPLQPRVQLDERGRQRGDFSLWLRPARRADAGEYRAAVHLRDRALSCRLRLRLGQASMTASPPGSLRASDWVILNCSFSRPDRPASVHWFRNRGQGRVPVRESPHHHLAESFLFLPQVSPMDSGPWGCILTYRDGFNVSIMYNLTVLGGGGGSGGGGSEPKSSDKTHTCPPCPLTDTLQAETDQLEDEKSALQTEIANLLKEKEKLEFILAAHHHHHH
# notes: Leucine zipper dimer of D1-D2-Linker2-c-JUN-His and D1-D2-Linker2-c-FOS-His
# B2: LAG-3 D1-D2-LZ mutant WS323-LZ (N183A) (other)
# chain 1: LQPGAEVPVVWAQEGAPAQLPCSPTIPLQDLSLLRRAGVTWQHQPDSGPPAAAPGHPLAPGPHPAAPSSWGPRPRRYTVLSVGPGGLRSGRLPLQPRVQLDERGRQRGDFSLWLRPARRADAGEYRAAVHLRDRALSCRLRLRLGQASMTASPPGSLRASDWVILNCSFSRPDRPASVHWFRARGQGRVPVRESPHHHLAESFLFLPQVSPMDSGPWGCILTYRDGFNVSIMYNLTVLGGGGGSGGGGSEPKSSDKTHTCPPCPRIARLEEKVKTLKAQNSELASTANMLREQVAQLKQKVMNHHHHHH
# chain 2: LQPGAEVPVVWAQEGAPAQLPCSPTIPLQDLSLLRRAGVTWQHQPDSGPPAAAPGHPLAPGPHPAAPSSWGPRPRRYTVLSVGPGGLRSGRLPLQPRVQLDERGRQRGDFSLWLRPARRADAGEYRAAVHLRDRALSCRLRLRLGQASMTASPPGSLRASDWVILNCSFSRPDRPASVHWFRARGQGRVPVRESPHHHLAESFLFLPQVSPMDSGPWGCILTYRDGFNVSIMYNLTVLGGGGGSGGGGSEPKSSDKTHTCPPCPLTDTLQAETDQLEDEKSALQTEIANLLKEKEKLEFILAAHHHHHH
# notes: Leucine zipper dimer; D2 entry already carries N183A; copies: 1 + 1
# B3: LAG-3 D1-D2-LZ mutant WS331-LZ (P195A) (other)
# chain 1: LQPGAEVPVVWAQEGAPAQLPCSPTIPLQDLSLLRRAGVTWQHQPDSGPPAAAPGHPLAPGPHPAAPSSWGPRPRRYTVLSVGPGGLRSGRLPLQPRVQLDERGRQRGDFSLWLRPARRADAGEYRAAVHLRDRALSCRLRLRLGQASMTASPPGSLRASDWVILNCSFSRPDRPASVHWFRNRGQGRVPVRESAHHHLAESFLFLPQVSPMDSGPWGCILTYRDGFNVSIMYNLTVLGGGGGSGGGGSEPKSSDKTHTCPPCPRIARLEEKVKTLKAQNSELASTANMLREQVAQLKQKVMNHHHHHH
# chain 2: LQPGAEVPVVWAQEGAPAQLPCSPTIPLQDLSLLRRAGVTWQHQPDSGPPAAAPGHPLAPGPHPAAPSSWGPRPRRYTVLSVGPGGLRSGRLPLQPRVQLDERGRQRGDFSLWLRPARRADAGEYRAAVHLRDRALSCRLRLRLGQASMTASPPGSLRASDWVILNCSFSRPDRPASVHWFRNRGQGRVPVRESAHHHLAESFLFLPQVSPMDSGPWGCILTYRDGFNVSIMYNLTVLGGGGGSGGGGSEPKSSDKTHTCPPCPLTDTLQAETDQLEDEKSALQTEIANLLKEKEKLEFILAAHHHHHH
# notes: Leucine zipper dimer; D2 entry already carries P195A; copies: 1 + 1
# B4: LAG-3 D1-D2-LZ mutant WS447-LZ (E201D) (other)
# chain 1: LQPGAEVPVVWAQEGAPAQLPCSPTIPLQDLSLLRRAGVTWQHQPDSGPPAAAPGHPLAPGPHPAAPSSWGPRPRRYTVLSVGPGGLRSGRLPLQPRVQLDERGRQRGDFSLWLRPARRADAGEYRAAVHLRDRALSCRLRLRLGQASMTASPPGSLRASDWVILNCSFSRPDRPASVHWFRNRGQGRVPVRESPHHHLADSFLFLPQVSPMDSGPWGCILTYRDGFNVSIMYNLTVLGGGGGSGGGGSEPKSSDKTHTCPPCPRIARLEEKVKTLKAQNSELASTANMLREQVAQLKQKVMNHHHHHH
# chain 2: LQPGAEVPVVWAQEGAPAQLPCSPTIPLQDLSLLRRAGVTWQHQPDSGPPAAAPGHPLAPGPHPAAPSSWGPRPRRYTVLSVGPGGLRSGRLPLQPRVQLDERGRQRGDFSLWLRPARRADAGEYRAAVHLRDRALSCRLRLRLGQASMTASPPGSLRASDWVILNCSFSRPDRPASVHWFRNRGQGRVPVRESPHHHLADSFLFLPQVSPMDSGPWGCILTYRDGFNVSIMYNLTVLGGGGGSGGGGSEPKSSDKTHTCPPCPLTDTLQAETDQLEDEKSALQTEIANLLKEKEKLEFILAAHHHHHH
# notes: Leucine zipper dimer; D2 entry already carries E201D; copies: 1 + 1
# B5: LAG-3 D1-D2-LZ mutant WS451-LZ (E201G) (other)
# chain 1: LQPGAEVPVVWAQEGAPAQLPCSPTIPLQDLSLLRRAGVTWQHQPDSGPPAAAPGHPLAPGPHPAAPSSWGPRPRRYTVLSVGPGGLRSGRLPLQPRVQLDERGRQRGDFSLWLRPARRADAGEYRAAVHLRDRALSCRLRLRLGQASMTASPPGSLRASDWVILNCSFSRPDRPASVHWFRNRGQGRVPVRESPHHHLAGSFLFLPQVSPMDSGPWGCILTYRDGFNVSIMYNLTVLGGGGGSGGGGSEPKSSDKTHTCPPCPRIARLEEKVKTLKAQNSELASTANMLREQVAQLKQKVMNHHHHHH
# chain 2: LQPGAEVPVVWAQEGAPAQLPCSPTIPLQDLSLLRRAGVTWQHQPDSGPPAAAPGHPLAPGPHPAAPSSWGPRPRRYTVLSVGPGGLRSGRLPLQPRVQLDERGRQRGDFSLWLRPARRADAGEYRAAVHLRDRALSCRLRLRLGQASMTASPPGSLRASDWVILNCSFSRPDRPASVHWFRNRGQGRVPVRESPHHHLAGSFLFLPQVSPMDSGPWGCILTYRDGFNVSIMYNLTVLGGGGGSGGGGSEPKSSDKTHTCPPCPLTDTLQAETDQLEDEKSALQTEIANLLKEKEKLEFILAAHHHHHH
# notes: Leucine zipper dimer; D2 entry already carries E201G; copies: 1 + 1
# B6: human FGL1-His antigen (ACRO, FG1-H52Hy) (ligand, UniProt Q08830 23-312, looked up)
# chain: LEDCAQEQMRLRAQVRLLETRVKQQQVKIKQLLQENEVQFLDKGDENTVIDLGSKRQYADCSEIFNDGYKLSGFYKIKPLQSPAEFSVYCDMSDGGGWTVIQRRSDGSENFNRGWKDYENGFGNFVQKHGEYWLGNKNLHFLTTQEDYTLKIDLADFEKNSRYAQYKNFKVGDEKNFYELNIGEYSGTAGDSLAGNFHPEVQWWASHQRMKFSTWDRDHDNYEGNCAEEDQSGWWFNRCHSANLNGVYYSGPYTAKTDNGIVWYTWHGWWYSLKSVVMKIRPNDFIPNVI
# notes: Bought His-tagged protein; also called hFGL1; hFGL1 antigen
# Columns and labels:
# [1] = molecular target: B6; test: ELISA, same method as in Example 3: construct coated, serially diluted human FGL1 added, OD450
# [2] = molecular target: T1, LAG-3 D1-D2-D3-Fc mutant E201D (UniProt P18627 23-352); test: procedures of Examples 2-4 repeated; method not told here
# T1 construct: domain: D1-D2-D3; also called LAG-3 D1-D2-D3-Linker-Fc E201D
# [3] = molecular target: T2, LAG-3 D1-D2-D3-Fc mutant P207I (UniProt P18627 23-352); test: as above
# T2 construct: domain: D1-D2-D3; also called LAG-3 D1-D2-D3-Linker-Fc P207I
# [4] = molecular target: T3, LAG-3 D1-D2-D3-Fc mutant E201G (UniProt P18627 23-352); test: as above
# T3 construct: domain: D1-D2-D3; also called LAG-3 D1-D2-D3-Linker-Fc E201G
# [5] = molecular target: T4, LAG-3 D1-D2-D3-Fc mutant M212A (UniProt P18627 23-352); test: as above
# T4 construct: domain: D1-D2-D3; also called LAG-3 D1-D2-D3-Linker-Fc M212A
# [6] = molecular target: T5, Y103-7A (LAG3 D1-D2-Fab, anti-PD-L1 Fab) (human); test: Biacore SPR, antigen amine-coupled on CM5 chip, 1:1 fit
# T5 construct: Dimer of LAG-3-Linker3-VL-CL and LAG-3-Linker3-VH-CH1; the Fab is specific for PD-L1
# [7] = molecular target: T6, Y103-4A (LAG3 D1-D2-D3-D4-Fab, anti-PD-L1 Fab) (human); test: as above
# T6 construct: Dimer of LAG-3-Linker3-VL-CL and LAG-3-Linker3-VH-CH1; the Fab is specific for PD-L1
binder,measurement,setting,value
B1,binding result,[1],binds
B2,binding result,[1],binds
B3,binding result,[1],binds
B4,binding result,[1],binds
B5,binding result,[1],binds
B6,binding result,[2],binds
same,binding result,[3],binds
same,binding result,[4],binds
same,binding result,[5],binds
same,Kd,[6],2.46 nM
same,Kd,[7],0.929 nM
